Measured values as given in the supplement of paper PMC9876800.

System: peptide library, one residue held at a place counted from the S/T acceptor
Test: relative phosphorylation of the sub-library (ratio to the mean residue at this position); higher = residue favoured
Details: human
Summary of the method: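 Human or orthologue kinase constructs, purified and recombinant, were incubated under kinase-specific conditions in 384-well plates with biotinylated degenerate peptide sub-libraries. Each sub-library fixed one residue at one position around a central Ser/Thr. Incubations lasted 90 min with peptides at 50 μM and 50 μM ATP spiked with γ-32P-ATP, after which spots on streptavidin membranes were phosphorimaged and quantified by densitometry. Relative sub-library phosphorylation is a ratio to the mean residue at that position.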

Chain of PLK3, construct: Full length (Q9H4B4 whole entry, looked up): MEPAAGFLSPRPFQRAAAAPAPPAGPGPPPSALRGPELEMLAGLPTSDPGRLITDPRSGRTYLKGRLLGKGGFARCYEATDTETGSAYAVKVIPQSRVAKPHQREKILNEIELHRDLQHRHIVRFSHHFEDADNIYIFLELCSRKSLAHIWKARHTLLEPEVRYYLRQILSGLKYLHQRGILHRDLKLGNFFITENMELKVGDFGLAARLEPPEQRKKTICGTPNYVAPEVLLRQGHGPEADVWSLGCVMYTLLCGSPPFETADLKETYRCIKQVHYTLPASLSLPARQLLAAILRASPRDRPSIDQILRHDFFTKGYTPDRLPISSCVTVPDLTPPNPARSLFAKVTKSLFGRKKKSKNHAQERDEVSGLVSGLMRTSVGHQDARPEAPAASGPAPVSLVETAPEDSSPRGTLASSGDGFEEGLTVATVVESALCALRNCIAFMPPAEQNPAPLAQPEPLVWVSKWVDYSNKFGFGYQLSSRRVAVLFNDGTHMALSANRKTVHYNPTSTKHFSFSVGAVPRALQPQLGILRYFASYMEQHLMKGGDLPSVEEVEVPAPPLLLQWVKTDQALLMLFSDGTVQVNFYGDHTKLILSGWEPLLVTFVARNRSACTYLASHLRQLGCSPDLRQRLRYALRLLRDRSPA
Chain of MAPK11, construct: Full length (Q15759 whole entry, looked up): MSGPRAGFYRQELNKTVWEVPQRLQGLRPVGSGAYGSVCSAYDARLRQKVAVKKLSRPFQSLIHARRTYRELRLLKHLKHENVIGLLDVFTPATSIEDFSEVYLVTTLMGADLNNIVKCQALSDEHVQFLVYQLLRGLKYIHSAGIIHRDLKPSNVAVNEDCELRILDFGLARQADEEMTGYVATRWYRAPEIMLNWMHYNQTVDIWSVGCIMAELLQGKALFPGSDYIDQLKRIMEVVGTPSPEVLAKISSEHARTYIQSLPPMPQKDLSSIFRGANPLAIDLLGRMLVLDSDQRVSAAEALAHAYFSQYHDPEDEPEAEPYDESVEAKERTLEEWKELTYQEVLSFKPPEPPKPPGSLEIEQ
Chain of PHKG1, construct: Full length (Q16816 whole entry, looked up): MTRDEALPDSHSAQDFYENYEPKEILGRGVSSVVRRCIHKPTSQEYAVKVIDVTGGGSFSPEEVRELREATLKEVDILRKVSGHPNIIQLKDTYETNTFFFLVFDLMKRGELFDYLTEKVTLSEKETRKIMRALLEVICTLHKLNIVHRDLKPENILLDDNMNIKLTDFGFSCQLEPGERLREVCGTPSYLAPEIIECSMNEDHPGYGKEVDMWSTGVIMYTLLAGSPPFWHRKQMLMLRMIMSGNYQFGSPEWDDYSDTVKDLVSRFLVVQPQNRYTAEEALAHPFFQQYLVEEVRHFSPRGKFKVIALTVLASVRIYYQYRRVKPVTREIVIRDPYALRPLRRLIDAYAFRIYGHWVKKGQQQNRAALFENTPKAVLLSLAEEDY

MAP3K5, construct: aa659-951 (from UniProt Q99683)
relative phosphorylation
Details | at +1 | at +2 | at +3 | at +4 | at -1 | at -2 | at -3 | at -4 | at -5
A fixed | 0.385 | 0.72 | 0.897 | 0.901 | 0.825 | 1.66 | 1.44 | 1.09 | 1.01
D fixed | 0.255 | 0.881 | 0.707 | 0.815 | 0.699 | 0.504 | 0.689 | 0.908 | 0.899
E fixed | 0.344 | 0.473 | 0.652 | 0.812 | 0.685 | 0.471 | 0.738 | 0.906 | 0.815
F fixed | 2 | 1.32 | 1.22 | 0.964 | 1.08 | 0.77 | 0.826 | 1.04 | 1.17
G fixed | 0.324 | 0.521 | 0.951 | 0.926 | 1.58 | 1.12 | 0.979 | 1.08 | 1.28
H fixed | 1.1 | 1.06 | 1.04 | 1.12 | 1.06 | 0.985 | 1.24 | 1.02 | 1.19
I fixed | 2.04 | 0.648 | 1.01 | 0.717 | 0.507 | 1.12 | 0.905 | 0.897 | 0.75
K fixed | 0.375 | 1.08 | 1.04 | 1.88 | 1.13 | 0.61 | 1.02 | 0.913 | 1.13
L fixed | 1.33 | 0.806 | 1.03 | 0.943 | 0.993 | 1.12 | 1.01 | 0.827 | 0.747
M fixed | 0.894 | 0.812 | 1.06 | 0.877 | 1.06 | 1.17 | 0.894 | 1.04 | 0.88
N fixed | 0.382 | 0.615 | 0.793 | 0.743 | 1.04 | 1.36 | 0.989 | 0.807 | 0.792
P fixed | 0.352 | 0.543 | 1.03 | 1.02 | 1.07 | 1.22 | 1.36 | 1.22 | 1.41
Q fixed | 0.498 | 0.64 | 0.806 | 0.89 | 0.775 | 0.987 | 1 | 1.01 | 0.919
R fixed | 0.401 | 1.34 | 1.31 | 1.5 | 1.6 | 0.941 | 1.04 | 0.965 | 1.08
V fixed | 1.78 | 0.645 | 1.01 | 0.723 | 0.54 | 1.09 | 0.835 | 1.12 | 0.836
W fixed | 1.97 | 1.32 | 1.14 | 1.33 | 0.981 | 0.777 | 1.12 | 1.08 | 0.996
Y fixed | 2.56 | 3.57 | 1.29 | 0.846 | 1.37 | 1.09 | 0.904 | 1.07 | 1.09
pThr fixed | 0.556 | 0.528 | 0.673 | 0.597 | 0.672 | 0.847 | 0.914 | 0.985 | 1
pTyr fixed | 0.623 | 0.518 | 0.863 | 0.704 | 1.47 | 0.793 | 0.884 | 1.04 | 1.24

MAPK11, construct: Full length (from UniProt Q15759)
relative phosphorylation
Details | at +1 | at +2 | at +3 | at +4 | at -1 | at -2 | at -3 | at -4 | at -5
A fixed | 1.65 | 1.14 | 1.35 | 0.935 | 1.22 | 0.953 | 1.26 | 1.14 | 1.12
D fixed | 0.136 | 0.985 | 0.947 | 0.919 | 0.745 | 0.501 | 0.917 | 1.25 | 1.06
E fixed | 0.12 | 0.81 | 0.98 | 0.818 | 0.765 | 0.338 | 1.03 | 1.13 | 0.921
F fixed | 0.268 | 0.828 | 0.913 | 1.27 | 0.852 | 0.614 | 0.708 | 0.766 | 0.944
G fixed | 0.841 | 1.14 | 1.08 | 1.19 | 1.24 | 0.73 | 1.53 | 1.21 | 1.22
H fixed | 0.227 | 1.1 | 0.959 | 1.15 | 1.21 | 0.572 | 0.902 | 0.941 | 1.12
I fixed | 0.304 | 1.15 | 1.11 | 1.05 | 0.676 | 1.16 | 1.04 | 0.885 | 0.88
K fixed | 0.209 | 1.12 | 0.583 | 0.818 | 0.842 | 0.461 | 0.722 | 0.961 | 0.921
L fixed | 0.337 | 1.04 | 1.01 | 1.14 | 1.37 | 1.46 | 1.09 | 0.982 | 1.08
M fixed | 0.26 | 0.951 | 0.852 | 1.08 | 1.67 | 1.22 | 0.988 | 1.06 | 0.941
N fixed | 0.141 | 0.874 | 0.632 | 0.764 | 0.705 | 0.585 | 0.886 | 0.952 | 0.956
P fixed | 11.4 | 0.762 | 1.95 | 1.01 | 1.39 | 5.14 | 1.61 | 1.29 | 1.37
Q fixed | 0.185 | 0.942 | 0.71 | 0.859 | 1.26 | 0.633 | 1.05 | 0.94 | 0.902
R fixed | 0.206 | 1.08 | 0.676 | 0.871 | 0.847 | 0.505 | 0.835 | 0.823 | 0.834
V fixed | 0.289 | 1.24 | 1.25 | 0.995 | 0.749 | 1.16 | 0.954 | 0.896 | 0.839
W fixed | 0.206 | 0.792 | 0.975 | 1.04 | 0.618 | 0.437 | 0.723 | 0.946 | 0.913
Y fixed | 0.2 | 1.05 | 1.02 | 1.1 | 0.833 | 0.53 | 0.748 | 0.83 | 0.981
pThr fixed | 0.405 | 1.32 | 1.18 | 0.795 | 0.364 | 0.617 | 1.1 | 1.16 | 1.15
pTyr fixed | 0.589 | 0.741 | 0.996 | 0.757 | 0.653 | 0.396 | 0.932 | 1.04 | 1.05

PHKG1, construct: Full length (from UniProt Q16816)
relative phosphorylation
Details | at +1 | at +2 | at +3 | at +4 | at -1 | at -2 | at -3 | at -4 | at -5
A fixed | 0.524 | 0.708 | 0.898 | 0.937 | 0.837 | 1.11 | 0.736 | 0.926 | 1
D fixed | 0.175 | 0.2 | 0.276 | 0.343 | 0.512 | 0.624 | 0.356 | 0.439 | 0.436
E fixed | 0.197 | 0.139 | 0.272 | 0.238 | 0.411 | 1.49 | 0.376 | 0.573 | 0.367
F fixed | 3.7 | 1.16 | 1.29 | 1.13 | 1.06 | 0.838 | 0.53 | 0.865 | 1.18
G fixed | 0.491 | 0.721 | 1.06 | 1.02 | 0.741 | 1.13 | 0.824 | 1.15 | 0.937
H fixed | 0.712 | 1.35 | 1.3 | 1.18 | 1.24 | 0.984 | 1.12 | 1.11 | 1.1
I fixed | 1.5 | 0.516 | 0.891 | 0.75 | 0.611 | 0.363 | 0.278 | 0.728 | 0.791
K fixed | 0.777 | 2.04 | 1.37 | 2.01 | 1.44 | 1.12 | 2.55 | 1.56 | 1.46
L fixed | 1.17 | 0.544 | 1.06 | 0.956 | 0.927 | 0.576 | 0.376 | 0.823 | 1.34
M fixed | 1.65 | 0.694 | 0.957 | 0.886 | 1.18 | 0.969 | 0.458 | 0.957 | 0.824
N fixed | 0.513 | 0.739 | 0.786 | 0.866 | 1.32 | 1.28 | 0.721 | 0.764 | 0.664
P fixed | 0.292 | 0.721 | 1.09 | 1.29 | 0.999 | 0.702 | 0.926 | 1.17 | 1.01
Q fixed | 0.779 | 0.703 | 0.782 | 1.01 | 1.14 | 2.05 | 0.936 | 0.927 | 0.779
R fixed | 0.876 | 3.73 | 1.46 | 1.67 | 1.57 | 1.55 | 4.81 | 1.63 | 1.58
V fixed | 1.22 | 0.501 | 0.721 | 0.752 | 0.711 | 0.508 | 0.311 | 0.721 | 0.832
W fixed | 1.21 | 1.48 | 1.56 | 1.1 | 0.931 | 0.813 | 0.98 | 1.58 | 1.71
Y fixed | 1.22 | 1.06 | 1.24 | 0.862 | 1.38 | 0.875 | 0.71 | 1.08 | 0.99
pThr fixed | 0.419 | 0.25 | 0.393 | 0.356 | 0.535 | 0.529 | 0.621 | 0.846 | 0.68
pTyr fixed | 0.329 | 0.171 | 0.348 | 0.254 | 0.675 | 0.4 | 0.469 | 0.721 | 0.599

PLK3, construct: Full length (from UniProt Q9H4B4)
relative phosphorylation
Details | at +1 | at +2 | at +3 | at +4 | at -1 | at -2 | at -3 | at -4 | at -5
A fixed | 0.585 | 0.878 | 0.681 | 0.695 | 0.828 | 0.711 | 0.85 | 0.948 | 1.07
D fixed | 0.463 | 1.91 | 1.91 | 1.6 | 1.79 | 3.16 | 1.45 | 1.38 | 1.13
E fixed | 0.565 | 1.84 | 2.75 | 1.82 | 1.45 | 1.99 | 3.4 | 1.38 | 1.09
F fixed | 3.8 | 1.14 | 0.839 | 1.09 | 0.798 | 0.831 | 1.1 | 0.963 | 1.08
G fixed | 0.491 | 0.475 | 0.766 | 0.819 | 0.519 | 0.688 | 0.865 | 1.05 | 1.16
H fixed | 0.771 | 1.02 | 1.06 | 0.913 | 1.1 | 0.865 | 1.11 | 0.945 | 1.09
I fixed | 0.989 | 1.01 | 0.724 | 0.928 | 0.886 | 0.364 | 0.515 | 0.905 | 0.795
K fixed | 0.517 | 0.343 | 0.519 | 0.61 | 0.76 | 0.418 | 0.535 | 0.932 | 1.2
L fixed | 1.06 | 0.92 | 0.831 | 1.21 | 0.966 | 0.654 | 1.08 | 1.1 | 0.85
M fixed | 1.75 | 1.13 | 0.767 | 1.09 | 1.02 | 0.773 | 1.11 | 0.878 | 0.848
N fixed | 0.526 | 0.973 | 1.16 | 0.935 | 1.3 | 2.15 | 0.842 | 1.02 | 1.11
P fixed | 0.196 | 0.444 | 0.598 | 1.03 | 0.965 | 0.517 | 0.585 | 0.844 | 1.04
Q fixed | 0.93 | 0.714 | 0.876 | 0.881 | 0.929 | 1.06 | 0.778 | 0.831 | 0.757
R fixed | 0.87 | 0.56 | 0.642 | 0.706 | 1.06 | 0.592 | 0.597 | 0.906 | 1.13
V fixed | 0.814 | 0.806 | 0.706 | 0.656 | 0.928 | 0.437 | 0.476 | 0.834 | 0.769
W fixed | 1.04 | 1.51 | 1.1 | 1.12 | 0.566 | 0.654 | 0.934 | 1.19 | 0.964
Y fixed | 1.62 | 1.34 | 1.07 | 0.888 | 1.12 | 1.13 | 0.768 | 0.89 | 0.931
pThr fixed | 1.18 | 1.97 | 1.44 | 2.41 | 0.624 | 0.625 | 0.835 | 1.08 | 0.914
pTyr fixed | 1.06 | 6.48 | 2.1 | 2.03 | 3.06 | 0.735 | 1.01 | 1.17 | 1.11
